Laboratory results taken from PMC3077455.
Where two headings read alike, the source gives them in different places.

Key:
[1] = target: Cse4 150-229 (sedimentation sample) (budding yeast) (UniProt P36012); assay: AUC
[2] = target: Cse4 150-229 (sedimentation sample) (budding yeast) (UniProt P36012); assay: AUC; remark: listed apart in the source
[3] = target: single chain Cse4-H4 (His6-KK-Cse4_(151–207)-LVPRGS-H4_(45–103)) (budding yeast | not stated) (UniProt P36012); assay: ITC

Sequence of Scm3 84-169 (Q12334 84-169): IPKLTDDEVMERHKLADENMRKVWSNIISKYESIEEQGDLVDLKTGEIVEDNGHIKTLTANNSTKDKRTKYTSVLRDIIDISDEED

| stoichiometry N [1] | stoichiometry N [2] | fold reduction of the binding affinity against the wild type [3] [fold] | Substance |
| --- | --- | --- | --- |
| 1 | 1 |  | Scm3 84-169 (from UniProt Q12334 84-169) (domain or fragment) |
|  |  | 85 | Scm3 Ile110Asp/Ile117Asn (from UniProt Q12334 83-169) (domain or fragment) |
| 1 | 1 |  | histone H4, full length (from UniProt P02309 1-103) (natural protein) |
